Results taken from PMC10663143, “CALEOSIN 1 interaction with AUTOPHAGY-RELATED PROTEIN 8 facilitates lipid droplet microautophagy in seedlings” (Plant Physiology, 2023).

Target: T1, CALEOSIN 2 (CLO2), Cub fusion (Arabidopsis thaliana, UniProt Q9FLN9 1-243)
T1 construct: CALEOSIN 2 of Arabidopsis thaliana; the coding region was amplified and inserted into pMetYCgate; Bait; source: yeast split-ubiquitin fusion (pMetYCgate, S. cerevisiae THY.AP4)
Test: two-hybrid; mating-based split-ubiquitin system in yeast; Cub fusions as bait, NubG fusions as prey; quantitative β-galactosidase assay (Beta-Glo), activity normalized to a reference pair
Conditions: partners not purified

T1 sequence (Q9FLN9 whole entry, the tested form may be a part): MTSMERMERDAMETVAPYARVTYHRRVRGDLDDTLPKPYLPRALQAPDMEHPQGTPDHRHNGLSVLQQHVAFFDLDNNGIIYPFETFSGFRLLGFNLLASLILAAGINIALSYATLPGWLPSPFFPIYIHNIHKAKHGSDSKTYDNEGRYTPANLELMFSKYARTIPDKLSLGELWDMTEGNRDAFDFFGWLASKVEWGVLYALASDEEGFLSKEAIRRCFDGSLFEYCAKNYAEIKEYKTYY

fold weaker β-galactosidase activity than with CLO1, CLO3 and OLE1: 2 fold
B1: AUTOPHAGY-RELATED PROTEIN 8b (ATG8b), NubG fusion (natural protein, Arabidopsis thaliana, UniProt Q9XEB5 1-117, looked up)
chain: MEKNSFKLSNPLEMRMAESTRIRAKYPERVPVIVEKAGQSDVPDIDKKKYLVPADLTIGQFVYVVRKRIKLGAEKAIFVFVKNTLPPTAALMSAIYEEHKDEDGFLYMTYSGENTFG
notes: AUTOPHAGY-RELATED PROTEIN 8b of Arabidopsis thaliana; the coding region was amplified and inserted into pNXgate32-3HA; Prey; source: yeast split-ubiquitin fusion (pNXgate32-3HA, S. cerevisiae THY.AP5)
